{"source": "the nanobody polyreactivity screen of Harvey et al. (2022)", "data": [{"test": "yeast display, Sf9 membrane polyspecificity reagent, FACS + sequencing; frameworks hold sequencing errors", "in_short": "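Genes from sorted yeast were amplified by colony PCR, read by MiSeq 2 × 250 sequencing and filtered on CDR length. These cells carried a synthetic nanobody library in Saccharomyces cerevisiae BJ5465 and were sorted by FACS into low and high (top ~1%) gates on anti-HA and streptavidin fluorescence. Polyreactivity is labelled according to the gate of origin.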", "values": [{"sequence": "QVQLVESGGGLVQAVGSLRLSCAASGRTFARNAMGWYRQAPGKERELVAVITSGTSTYYADSVKGRFTISRDYAKNTVYLQMNSLKPEDTAVYYCAARSPGRAGIYYSWGQGTQVTVSS", "polyreactivity (PSR sort gate)": "high polyreactivity"}, {"sequence": "QVQLVESGGGLVQAGGSLRLSCAASGRTYPGYSMGWYRQAPGKERELVAAITRGSTNYADSVKGRFTISRDNAKNTVYLQMNSLKPEYTAVYYCATRGYYYWTHYDYWGHGTQVTVSS", "polyreactivity (PSR sort gate)": "low polyreactivity"}, {"sequence": "QVQLVESGGGLVQAAGSLRLICAASGSTFPANAMGWYRQEPGKERELVASITKSGGDTYYADSVKGRFTISRDNAKNSVYVQMNSLKPEDTAVYDCAKDYVNQYGVYKVWANNYNYWGQGTQVTVSS", "polyreactivity (PSR sort gate)": "low polyreactivity"}, {"sequence": "QVQLVESGGGLLQAGGSLRLSSAASGLTFAAYAMGWYRQAPGKEREFVAAITSSGGSTYYADSVKGRFTISRDNAKNSVYLQMNSLKPEDTAVYYCAAYYYDHYYWGQGTQVTVSS", "polyreactivity (PSR sort gate)": "high polyreactivity"}, {"sequence": "QVQLVESGGGLVQAGGSLRLSCAASGFIFYTYAMGWYIQAPGKERELVAAINTSGSTTNYADSVKGRFTISRDNAKNTVYLQMNSLKPEDTAVYYCAAEWNVSPYDYWGQGTQVTVSS", "polyreactivity (PSR sort gate)": "low polyreactivity"}, {"sequence": "QVQLVESGGGLVQAVGSLRLSCAASGSIFPDNAMGWYRQAPRKERELVASISWSGGSTYYADSVKGRFTISRDNAKNPVYLQRNSLKPEDTAVYYCARTYYWYLRVDYWGQGTQVTVSS", "polyreactivity (PSR sort gate)": "low polyreactivity"}, {"sequence": "QVQLVESGGGLVQAGGSLRLTCAASGSIFNGYAMGCYRQAPGKERELVAAIRTRGGSTYYADSVKGRFTISRDIAMNTVYLQMNSLKPEDTAVYYCAKRYFGWYGNFDYWGQGTQVTVSS", "polyreactivity (PSR sort gate)": "high polyreactivity"}, {"sequence": "QVQLVESGGGIVQAGGSLRLSCAASGSTLHSYALGWYRQAPGKERELVAAISFRGGSTYADSVKGRFTISRDNAKNTVYVQMNSLKPEDTAVYYCATRRTRADWYIVGYDYWGQGTQVTVSS", "polyreactivity (PSR sort gate)": "low polyreactivity"}, {"sequence": "QVQRVESGGGLVQAGGSLRLSCAASGYTLGGYAMGWYRQAPGKERELVAAISSSGTSTYYADSVKGRFTISRDNAKNTVYLQMNSLKPEDTAVYYCNAYYLTYSAGDYWGQGTQVTVSS", "polyreactivity (PSR sort gate)": "low polyreactivity"}, {"sequence": "QVQLVESGGGLVQAGGSLRLSWAASGRTFQYYTMGWYRQAPGKERELVAAISTGGSTHYADSVKGRFTISRDNAKNTVYLQMNSLKPEDTAVYYCAALWSRRRSRPRFPGDYWGQGTQVTVSS", "polyreactivity (PSR sort gate)": "high polyreactivity"}, {"sequence": "QDQLVESGGGLVQAGGSLRLSCAASGSTFLTYAMGWYRQAPGKERELVAAISKTGASTYYADSVKGRFTISRDNAKNTVYLQMNSLKPEDTAVYDCAAGRYTSYSPRYYYWGQGTQVTVSS", "polyreactivity (PSR sort gate)": "high polyreactivity"}, {"sequence": "QVQLVESGGGLVQAGGSLRLSCAASGRTLVRNAMGWYTQAPGKEREFVAGITESGDRTSYADSVKGRFTISRDNAKNTVYLQMNSLKPEDTAVYFCAASRPWDFYSFGFDYWGQGTQVTVSS", "polyreactivity (PSR sort gate)": "high polyreactivity"}, {"sequence": "QVQIVESGGGLVQAGGSLRLSCAASGSTLGVNAMGWYRQAPGKERELVAAISKSGGGTYYADSVKGRFTISRDIAKNTVYLQMNRLIPEDTAVYYCNAPVSRKYYSWGQGTQVTVSS", "polyreactivity (PSR sort gate)": "high polyreactivity"}, {"sequence": "QVQLVDSGGGLVQAGGSLRLSCAASGRTFATYAMGWNRQAPGKERELVAAISSGGSTYYADSVKGRFTISRDNAKNNVYLQMNRLKPDDTAVYYCAAEVWFPDRWMDYWGQGTQVTVSS", "polyreactivity (PSR sort gate)": "high polyreactivity"}, {"sequence": "QVQLVESGGGLDQAGGSLRLSCAASGSTFYSYDMGWYRQAPGKEREMVAAISSGGSTYYADSVKGRFTISRDNAKNTVYLQMNSLKPEDTEVYYCAAKRRATTGYRYDYWGQGTQGTVSS", "polyreactivity (PSR sort gate)": "high polyreactivity"}, {"sequence": "QVQLVESGGGLVQAGGSLRLSCAASGRIFGGYAMGWYRQAPGKERELVAAITSSGSTNYADSVKGRFTISRDNAKNTVYLQMNSLKPEDTAVYYCATDFKTVYYWWGMDYWGQGTQVTVSS", "polyreactivity (PSR sort gate)": "low polyreactivity"}, {"sequence": "QVQLVESGGGLVQAGGSLRCSWAASGFIFTPYAMGWYRQAPGTEREFVATITWSGGSTNYADSVKGRFTISRDNAKNTVYLPMNSLKPDDTAVYYCNADTWSPNDYWGQGTQVTVSS", "polyreactivity (PSR sort gate)": "low polyreactivity"}, {"sequence": "QVQLVESGGGLVQAGGSLRLSCAASGSIFQYNAMGWYRPAPGKERELVAAISSRGGITYYADSVKGRFTISRDNAKNTVYLQMNSMKPEDTAVYDCAAVAYYSEVRWYEYWGQGTQVTVSS", "polyreactivity (PSR sort gate)": "high polyreactivity"}, {"sequence": "QVQLVESGGGLFQAGVSLRLSCAASGRTLQIYHMGWYRQAPGKERELVAAISSSGGSTYYADSVKGRFTISRDNAKNTVYVQMNSLKAEDTAVYYCAADPRGYGYTRKGYYWGQGTQVTVSS", "polyreactivity (PSR sort gate)": "high polyreactivity"}, {"sequence": "QVQLVESGGGLVQAGGSLRLSCAASGSIFWGYAMGWYRQAPGKERELVATIRNRGGSTYYADSVKGRFTISRDNAKNTVYLQMNSLKPEDTAVYYCAARFPHRHYLLYTYDYWGQGTQVTVSS", "polyreactivity (PSR sort gate)": "low polyreactivity"}, {"sequence": "QVQLVESGGCLVQAGGSLRLSCDASGSTFPYYAMGWYRQAPGKERELVAAITLSGSSTYYTDSVKGRFTISRDNAKNTVYLQMNSLKPEDTAVYYCATRRVQWGYRYSYWRQGTQVTVSS", "polyreactivity (PSR sort gate)": "high polyreactivity"}, {"sequence": "QVQLVESGGGLVQAGGSLRLSCAASGSTFNIYAMGWYRQAPGKERELVAAISGNGDRTYYADSVKGRFTISRDNAKNTVYLQMNSLKPEDTAVYYCAAKYYGWGQGTQVTVSS", "polyreactivity (PSR sort gate)": "high polyreactivity"}]}]}
